Data set [1] addresses T1, GPCR bovine rhodopsin (Bos taurus, UniProt P02699).
T1 construct: Bovine retinae rod outer segment membranes were prepared (40, 41) and urea-stripped (42); tissue J. A. Lawson (Lincoln, Nebr.); host or cells: bovine retinae, rod outer segments
The data set can be described thus: Thermal stability of rhodopsin in peptide solution in the presence of surfactant (decay of A500). The format is biochemical. Particulars: control solution (1.25 mM A6D/1% OG), 50° C.

A short description of data set [2]: Critical aggregation concentration (CAC) of surfactants, dynamic light scattering. The format is physicochemical. Here is the method:
In a further embodiment, the surfactant peptide is added to the mammalian membrane protein at a concentration that is based on the CAC of the surfactant peptide. The CAC of surfactants can be determined experimentally using known dynamic light scattering methods. A minimal amount of sample can be used in this method. Each CAC determination takes a few hours, therefore it is possible to determine the CAC for a large number of peptide detergents in a few weeks. It is known that the lower the CAC, the more hydrophobic the detergents and the stronger the aggregation in water. The CAC for several peptide surfactants in water is shown below in Table 1.
Similar to common surfactants, these peptide surfactants have defined critical aggregation concentrations (CACs) in the sub-millimolar to millimolar range, depending on the hydrophobicity of the tails and the ionic concentration. For example, in water, A6D has a CAC of ≈1.6 mM, and A6K has a CAC of 1.5 mM; however, in phosphate-based saline (PBS) (10 mM sodium phosphate/150 mM NaCl, pH 7.4), A6D has a CAC of 0.25 mM and A6K has a CAC of ≈0.23 mM. This difference is due the charge screening effect in accordance with the Derjaguin-Landau-Verwey-Overbeck (DVLO) theory, which postulates that a critical coagulation concentration of counterions is required to allow assembly and that this concentration will be inversely proportional to the valence of the counterion raised to the sixth power (28). The peptide surfactant supramolecular structure is similar to that of phospholipids; namely, the formation of a polar interface sequesters the hydrophobic tails from water.

Data set [3] addresses T1, GPCR bovine rhodopsin. The data set can be described thus: Thermal stability of rhodopsin in peptide solution in the absence of OG (decay of A500). Format: biochemical. The note with it: rhodopsin/lipid/A6D complex without OG, 2.5 mM A6D, 40° C., 50° C., and 55° C. The protocol: Thermal Stability of Rhodopsin in Peptide Solution in the Absence of OG. Rhodopsin solubilized in PBS containing 2% (vol/vol) OG was added to the same volume of PBS containing 2.5 mM A6D. […] Then, 0.5 ml of the mixture was poured into the tube. The tube was covered with 10 kDa of cutoff membrane and dialyzed against 4.5 ml of PBS containing 1.25 mM A6D for 40 h in the dark at 4° C. A resultant sample decrease in A500 was recorded every 5 min for 120 min at 40° C. A decrease in A500 of the predialysis mixture containing 1% OG and 1.25 mM A6D was also monitored as a control (FIG. 4A).

For data set [4], the system named is phycobilisomes. The data set can be described thus: Stabilization of phycobilisomes, room temperature fluorescent spectroscopy (666 nm). The format is biochemical, Porphridium Cruentum. The protocol: Methods: Native phycobilisomes were isolated from Porphridium Cruentum, purified by Martek Biosciences and received in stabilizing buffer (0.75 M PBS, pH ˜7). Peptergents (ac-A6D and ac-A6K—NH2) were used as supplied (CPC Scientific) without further purification. Briefly, phycobilisomes (1 ng/mL) were mixed with peptergent-0.75M PBS solutions (0, 1, 2, 4 and 8 critical aggregation concentrations (CAC)). Phycobilisome-peptide solutions were dialyzed (3400 MWCO) against PBS solutions of various molarity (0.6-0.01M) for 18 h, in the dark. Room temperature fluorescent spectroscopy of these solutions was conducted using an excitation wavelength of 540 nm and emitted fluorescence (550-700 nm) were collected. UV-Vis spectra were obtained to confirm solution concentrations for all acquired fluorescent data.

The target of data set [5] is T2, delipidated bovine rhodopsin (Bos taurus, UniProt P02699).
T2 construct: Bovine retinae rod outer segment membranes were prepared (40, 41) and urea-stripped (42); tissue J. A. Lawson (Lincoln, Nebr.); host or cells: bovine retinae, rod outer segments
The data set is described as follows: Thermal stability of delipidated rhodopsin in the absence of phospholipids (decay of A500). The format is biochemical. Particulars: delipidated rhodopsin, 40° C. The protocol:
Removal of Phospholipids from Rhodopsin. Samples of the membranes containing 4.7 nmol of rhodopsin were solubilized in 1,000 ul of PBS containing 2% (vol/vol) OG. The suspension was mixed with 250 ul (settled beads, concentration of 50%) of rhodopsin-1D4 Sepharose and rotated for 3 h. The 1D4 Sepharose beads were then packed into a minicolumn (7-mm inner diameter) and washed with PBS containing 1% OG by using 500 bed volumes (total of 62.5 ml). The rhodopsin was then eluted with 1.5 ml of PBS containing 1% OG and the C-terminal nanopeptide.
Thermal Stability Study of Rhodopsin in Peptide Solution in the Absence of Phospholipids. The delipidated rhodopsin solution was added to the same volume of 1% OG in PBS containing 0, 3.75, or 7.5 mM A6D, or 1.8% PEG (FIG. 4B). In another experiment, the delipidated rhodopsin solutions were poured into tubes. Each tube was covered with 10 kDa of cutoff membrane and dialyzed against 4.5 ml of PBS or PBS containing 1.25 mM A6D or 1% OG (FIG. 4C). For all samples, a decrease in A500 was recorded every 5 min, up to 120 min at 40° C.

For data set [6], the target named is T1, GPCR bovine rhodopsin. The data set is described as follows: Thermal stability of rhodopsin in peptide solution in the presence of surfactant (decay of A500). Format: biochemical. Here is the method:
Solubilization of Rhodopsin in Different Surfactants. Bovine retinae rod outer segment membranes were prepared (40, 41) and urea-stripped (42). Samples of the membranes containing 1.4 nmol of rhodopsin were solubilized in 0.5 ml of PBS containing 0.5 mM phenylmethylsulfonyl fluoride with 1% DM or 2% (/vol) OG. The suspensions were centrifuged (100,000×g for 15 min), and the supernatants were kept in the dark at 4° C.
Thermal Stability Study of Rhodopsin in Peptide Solution in the Presence of the Surfactant. Rhodopsin solubilized (32-34) in PBS containing 2% (vol/vol) OG was added to the same volume of PBS containing 0, […], 5.0, or 7.5 mM A6D, 1.8% PEG, or 5.4 mM RAD8. In another experiment, rhodopsin solubilized in PBS containing 1% (19.8 mM) DM was added to the same volume of PBS containing 5.0 mM A6D or 0, 5.0, or 19.8 mM DM. A decrease in A500 was recorded every 5 min up to 110 min at 40° C. for the samples containing OG and at 40-55° C. for those containing DM (FIGS. 2 and 3). UV-visible absorption spectroscopy was performed with a Lambda 6 spectrophotometer (Perkin-Elmer, Wellesley, Mass.) equipped with a temperature regulated cuvette holder with a slit width of 2 nm, 480 nm/min scan speed, and a response time of 1 second. The A500 remaining at different time points was expressed as the percentage of absorbance present at the start of the experiment. The half-life of rhodopsin in each solution was calculated by using a single exponential curve fit. The plot obtained from the percentage of absorbance at different time points was fitted to a single exponential curve with two parameters (Eq. 1).
The plot obtained from the A500 values at different time points was directly fitted to a single exponential curve with three parameters (Eq. 2) when the plot from the percentage of absorbance could not be fitted to Eq. 1.
The half-life (t1/2) was calculated using Eq. 3.

Bounds are passed on as bounds.

T1 sequence (P02699 whole entry): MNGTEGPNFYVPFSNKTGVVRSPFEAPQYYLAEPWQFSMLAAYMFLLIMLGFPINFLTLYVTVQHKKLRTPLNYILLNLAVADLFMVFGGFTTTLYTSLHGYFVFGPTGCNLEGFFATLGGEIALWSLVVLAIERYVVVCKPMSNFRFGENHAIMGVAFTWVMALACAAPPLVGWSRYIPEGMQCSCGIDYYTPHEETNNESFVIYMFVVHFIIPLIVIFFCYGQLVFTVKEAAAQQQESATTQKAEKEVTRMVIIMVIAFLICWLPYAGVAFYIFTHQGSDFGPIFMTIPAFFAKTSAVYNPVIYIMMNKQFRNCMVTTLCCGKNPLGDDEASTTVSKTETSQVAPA
T2 sequence (P02699 whole entry): as above

On to AAAAAAD [A6D], for which the Half-life of rhodopsin in data set [1] was below 5 min; in data set [5] (1.25 mM A6D alone, no OG, no phospholipids), 122 min and ≈ 122 min; in data set [5] (1.87 mM A6D/1% OG), 76 min and ≈ 76 min; in data set [5] (3.75 mM A6D/1% OG), 128 min and ≈ 128 min; in data set [6] (rhodopsin/lipid, 1.25 mM A6D/1% OG, 40° C.) it was 101 min and ≈ 101 min; in data set [6] (rhodopsin/lipid, 3.75 mM A6D/1% OG, 40° C.) it was 277 min and ≈ 277 min. For the same substance, the Half-life of rhodopsin in data set [6] (rhodopsin/phospholipids, 2.5 mM A6D/1% OG, 40° C.) was 173 min and ≈ 173 min. Further, the CAC in data set [2] (in phosphate-based saline (PBS) (10 mM sodium phosphate/150 mM NaCl, pH 7.4)) is recorded as 0.25 mM; in data set [2] (in water), around 1.6 mM. In addition, the “Thermal stability of rhodopsin” value in data set [3] is “very stable at all tested temperatures with little denaturation”; in data set [6] (rhodopsin/phospholipids/DM (9.8 mM) plus 2.5 mM A6D, 50° C.), “extremely stable with little decay”. The “Concentration normalized signal strength” value in data set [4] (666 nm, versus stabilized control) is reported as “very similar to the stabilized control”. Moreover, in data set [4] (phycobilisomes after buffer change to 0.4M PBS, excitation 540 nm, room temperature), the “666 nm fluorescence intensity” value was 1.3 ×10^5 cps. Moreover, the “fold increase in stability compared with the stability in OG alone” value in data set [5] (1.87 mM A6D in OG) is given as 2.8 fold; in data set [5] (3.75 mM A6D in OG) it was 4.7 fold; in data set [6] (2.5 mM A6D/1% OG, rhodopsin/phospholipids, 40° C.), 2.5 fold. Further, the “fold increase in stability” value in data set [5] (A6D alone vs absence of both phospholipids and OG) was 2.6 fold. Besides, the “fold increase in stability of rhodopsin” value in data set [6] (3.75 mM A6D/1% OG, rhodopsin/lipid, 40° C.) is recorded as around 4 fold.
